For this assay, the target named is Ran G19V (UniProt P62826 1-216). Nature of the assay: co-expression and co-immunoprecipitation. The source says:
To address more directly the relative binding in vivo of Nercc to Ran-GDP compared to Ran-GTP, the cytoplasmic wild type Nercc and a nuclear form of full length Nercc (NLS-Nercc) were each co-expressed with wild type Ran or Ran mutants that bind GDP (T24N) or GTP (G19V) exclusively; either Ran or Nercc was immunoprecipitated and probed for the association with the other polypeptide. The full-length wild type Nercc bound co-expressed wild type Ran and Ran T24N to a greater extent than RanG19V.

B1: NLS Nercc FL (nuclear form of full length Nercc with an NLS peptide at the N-terminus) (enzyme)
chain: MSVLGEYERHCDSINSDFGSESGGCGDSSPGPSASQGPRAGGGAAEQEELHYIPIRVLGRGAFGEATLYRRTEDDSLVVWKEVDLTRLSEKERRDALNEIVILALLQHDNIIAYYNHFMDNTTLLIELEYCNGGNLYDKILRQKDKLFEEEMVVWYLFQIVSAVSCIHKAGILHRDIKTLNIFLTKANLIKLGDYGLAKKLNSEYSMAETLVGTPYYMSPELCQGVKYNFKSDIWAVGCVIFELLTLKRTFDATNPLNLCVKIVQGIRAMEVDSSQYSLELIQMVHSCLDQDPEQRPTADELLDRPLLRKRRREMEEKVTLLNAPTKRPRSSTVTEAPIAVVTSRTSEVYIWGGGKSTPQKLDVIKSGCSARQVCAGNTHFAVVTVEKELYTWVNMQGGTKLHGQLGHGDKASYRQPKHVEKLQGKAIHQVSCGDDFTVCVTDEGQLYAFGSDYYGCMGVDKVAGPEVLEPMQLNFFLSNPVEQVSCGDNHVVVLTRNKEVYSWGCGEYGRLGLDSEEDYYTPQKVDVPKALIIVAVQCGCDGTFLLTQSGKVLACGLNEFNKLGLNQCMSGIINHEAYHEVPYTTSFTLAKQLSFYKIRTIAPGKTHTAAIDERGRLLTFGCNKCGQLGVGNYKKRLGINLLGGPLGGKQVIRVSCGDEFTIAATDDNHIFAWGNGGNGRLAMTPTERPHGSDICTSWPRPIFGSLHHVPDLSCRGWHTILIVEKVLNSKTIRSNSSGLSIGTVFQSSSPGGGGGGGGGEEEDSQQESETPDPSGGFRGTMEADRGMEGLISPTEAMGNSNGASSSCPGWLRKELENAEFIPMPDSPSPLSAAFSESEKDTLPYEELQGLKVASEAPLEHKPQVEASSPRLNPAVTCAGKGTPLTPPACACSSLQVEVERLQGLVLKCLAEQQKLQQENLQIFTQLQKLNKKLEGGQQVGMHSKGTQTAKEEMEMDPKPDLDSDSGCLLGTDSCRPSL
notes: Probably FLAG-tagged like the other constructs; not shown: NLS peptide (a copy of the Nercc NLS)
Take B1: the binding result is listed as “no binding”.
